# IntAct's records for PubMed 22705208
# B1: Fibroblast growth factor 12 (Homo sapiens), P61328-2 (parent)
# chain: MESKEPQLKGIVTRLFSQQGYFLQMHPDGTIDGTKDENSDYTLFNLIPVGLRVVAIQGVKASLYVAMNGEGYLYSSDVFTPECKFKESVFENYYVIYSSTLYRQQESGRAWFLGLNKEGQIMKGNRVKKTKPSSHFVPKPIEVCMYREPSLHEIGEKQGRSRKSSGTPTMNGGKVVNQDST
# Variants of: B1
# Settings: with scn5a_human SCN5A
row,Variant,effect of a mutation on the interaction
1,K9E,disrupting interaction strength

# Variants of: B1
# Settings: with scn5a_human SCN5A
# Remark: another data set of the same source
row,Variant,effect of a mutation on the interaction
1,K9E,decreasing interaction strength
